Measured values from publication PMC10397247.

Tests used:
Assay in all cases: two-hybrid library CCNG1;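 also: natural log of median RNA to DNA barcode read ratio; higher means stronger binding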
4H3277-bN = target: T1, 4H3277-bN
T1 chain: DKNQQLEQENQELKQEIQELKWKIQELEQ

4H349-bN = target: T2, 4H349-bN
T2 chain: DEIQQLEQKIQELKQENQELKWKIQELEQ

4H2473-bN = target: T3, 4H2473-bN
T3 chain: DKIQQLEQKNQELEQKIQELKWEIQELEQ

4H2839-bN = target: T4, 4H2839-bN
T4 chain: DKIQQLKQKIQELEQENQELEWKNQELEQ

4H2518-bN = target: T5, 4H2518-bN
T5 chain: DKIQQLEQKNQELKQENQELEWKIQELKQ

4H2692-bN = target: T6, 4H2692-bN
T6 chain: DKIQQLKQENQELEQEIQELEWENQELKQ

4H2915-bN = target: T7, 4H2915-bN
T7 chain: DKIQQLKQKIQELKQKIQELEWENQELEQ

4H754-bA = target: T8, 4H754-bA
T8 chain: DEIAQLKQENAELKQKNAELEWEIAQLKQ

4H3364-bN = target: T9, 4H3364-bN
T9 chain: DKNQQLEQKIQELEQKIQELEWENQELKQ

4H2253-bN = target: T10, 4H2253-bN
T10 chain: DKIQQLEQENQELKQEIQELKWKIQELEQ

4H2223-bN = target: T11, 4H2223-bN
T11 chain: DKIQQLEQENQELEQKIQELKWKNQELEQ

4H2717-bN = target: T12, 4H2717-bN
T12 chain: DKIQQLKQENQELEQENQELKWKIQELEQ

4H477-bN = target: T13, 4H477-bN
T13 chain: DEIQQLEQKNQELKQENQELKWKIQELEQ

4H2233-bN = target: T14, 4H2233-bN
T14 chain: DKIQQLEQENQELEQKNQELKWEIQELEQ

4H949-bN = target: T15, 4H949-bN
T15 chain: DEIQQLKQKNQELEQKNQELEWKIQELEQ

4H932-bN = target: T16, 4H932-bN
T16 chain: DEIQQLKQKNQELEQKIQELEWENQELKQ

4H40-bN = target: T17, 4H40-bN
T17 chain: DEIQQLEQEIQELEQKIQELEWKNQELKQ

4H730-bN = target: T18, 4H730-bN
T18 chain: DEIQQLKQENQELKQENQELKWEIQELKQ

O11-bN = target: T19, O11-bN
T19 chain: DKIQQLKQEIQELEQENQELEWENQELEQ

4H3297-bN = target: T20, 4H3297-bN
T20 chain: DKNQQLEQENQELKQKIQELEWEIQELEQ

4H264-bN = target: T21, 4H264-bN
T21 chain: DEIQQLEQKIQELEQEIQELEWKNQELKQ

4H2760-bN = target: T22, 4H2760-bN
T22 chain: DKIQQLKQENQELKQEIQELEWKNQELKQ

4H2162-bN = target: T23, 4H2162-bN
T23 chain: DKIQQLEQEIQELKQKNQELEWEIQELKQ

4H348-bN = target: T24, 4H348-bN
T24 chain: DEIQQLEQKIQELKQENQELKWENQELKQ

4H796-bN = target: T25, 4H796-bN
T25 chain: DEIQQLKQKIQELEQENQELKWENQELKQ

4H2931-bN = target: T26, 4H2931-bN
T26 chain: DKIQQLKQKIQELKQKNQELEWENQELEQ

4H2143-bN = target: T27, 4H2143-bN
T27 chain: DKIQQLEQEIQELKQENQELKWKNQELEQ

4H741-bN = target: T28, 4H741-bN
T28 chain: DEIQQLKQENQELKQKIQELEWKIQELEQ

4H2588-bN = target: T29, 4H2588-bN
T29 chain: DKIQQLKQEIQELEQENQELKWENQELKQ

4H2503-bN = target: T30, 4H2503-bN
T30 chain: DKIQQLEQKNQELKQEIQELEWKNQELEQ

4H2444-bN = target: T31, 4H2444-bN
T31 chain: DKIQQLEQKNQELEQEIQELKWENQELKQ

4H56-bN = target: T32, 4H56-bN
T32 chain: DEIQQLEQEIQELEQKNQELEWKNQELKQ

4H3041-bN = target: T33, 4H3041-bN
T33 chain: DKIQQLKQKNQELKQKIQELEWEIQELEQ

4H2438-bN = target: T34, 4H2438-bN
T34 chain: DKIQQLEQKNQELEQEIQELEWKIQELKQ

4H3354-bN = target: T35, 4H3354-bN
T35 chain: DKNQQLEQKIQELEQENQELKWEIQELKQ

4H235-bN = target: T36, 4H235-bN
T36 chain: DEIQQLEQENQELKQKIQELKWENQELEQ

4H3057-bN = target: T37, 4H3057-bN
T37 chain: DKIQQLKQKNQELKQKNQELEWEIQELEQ

4H2585-bN = target: T38, 4H2585-bN
T38 chain: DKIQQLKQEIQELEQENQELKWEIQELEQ

4H319-bN = target: T39, 4H319-bN
T39 chain: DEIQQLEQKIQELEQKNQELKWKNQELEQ

4H2859-bN = target: T40, 4H2859-bN
T40 chain: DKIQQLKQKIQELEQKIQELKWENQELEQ

4H570-bN = target: T41, 4H570-bN
T41 chain: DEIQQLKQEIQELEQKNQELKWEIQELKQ

4H3381-bN = target: T42, 4H3381-bN
T42 chain: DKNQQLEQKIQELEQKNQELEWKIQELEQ

4H492-bN = target: T43, 4H492-bN
T43 chain: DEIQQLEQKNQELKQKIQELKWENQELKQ

O14-bA = target: T44, O14-bA
T44 chain: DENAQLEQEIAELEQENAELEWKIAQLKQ

O5-bA = target: T45, O5-bA
T45 chain: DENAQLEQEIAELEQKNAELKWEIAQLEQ

O15-bA = target: T46, O15-bA
T46 chain: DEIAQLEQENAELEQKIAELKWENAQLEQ

O8-bA = target: T47, O8-bA
T47 chain: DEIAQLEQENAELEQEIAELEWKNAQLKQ

O7-bA = target: T48, O7-bA
T48 chain: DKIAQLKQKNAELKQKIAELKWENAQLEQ

O9-bA = target: T49, O9-bA
T49 chain: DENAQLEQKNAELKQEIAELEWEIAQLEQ

O16-bA = target: T50, O16-bA
T50 chain: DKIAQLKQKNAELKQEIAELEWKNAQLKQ

O12-bA = target: T51, O12-bA
T51 chain: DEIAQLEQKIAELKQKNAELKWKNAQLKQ

O2-bA = target: T52, O2-bA
T52 chain: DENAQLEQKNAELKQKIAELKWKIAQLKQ

O3-bA = target: T53, O3-bA
T53 chain: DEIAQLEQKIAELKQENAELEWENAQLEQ

O13-bA = target: T54, O13-bA
T54 chain: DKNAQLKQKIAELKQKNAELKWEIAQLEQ

O4-bA = target: T55, O4-bA
T55 chain: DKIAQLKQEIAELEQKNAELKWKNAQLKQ

O6-bA = target: T56, O6-bA
T56 chain: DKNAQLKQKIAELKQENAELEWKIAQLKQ

4H2444-bA = target: T57, 4H2444-bA
T57 chain: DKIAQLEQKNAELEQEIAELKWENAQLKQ

B1: 4H2143-bN (peptide)
chain: DKIQQLEQEIQELKQENQELKWKNQELEQ
interaction score (4H3277-bN): -0.382 | interaction score (4H349-bN): 0.196 | interaction score (4H2473-bN): -0.596 | interaction score (4H2839-bN): -0.0339 | interaction score (4H2518-bN): -0.0822 | interaction score (4H2692-bN): -0.295 | interaction score (4H2915-bN): 0.491 | interaction score (4H754-bA): 0.173 | interaction score (4H3364-bN): -0.973 | interaction score (4H2253-bN): 0.598 | interaction score (4H2223-bN): -0.138 | interaction score (4H2717-bN): 0.125 | interaction score (4H477-bN): -0.266 | interaction score (4H2233-bN): -1.37 | interaction score (4H949-bN): -0.46 | interaction score (4H932-bN): 0.299 | interaction score (4H40-bN): 0.442 | interaction score (4H730-bN): 0.137 | interaction score (O11-bN): -1.88 | interaction score (4H3297-bN): -0.664 | interaction score (4H264-bN): -0.0625 | interaction score (4H2760-bN): -0.843 | interaction score (4H2162-bN): 0.354 | interaction score (4H348-bN): 0.129 | interaction score (4H796-bN): -0.462 | interaction score (4H2931-bN): -0.53 | interaction score (4H2143-bN): 0.45 | interaction score (4H741-bN): -0.465 | interaction score (4H2588-bN): -0.413 | interaction score (4H2503-bN): -0.374 | interaction score (4H2444-bN): -1.29 | interaction score (4H56-bN): -0.695 | interaction score (4H3041-bN): 0.217 | interaction score (4H2438-bN): 0.267 | interaction score (4H3354-bN): -2.78 | interaction score (4H235-bN): 0.188 | interaction score (4H3057-bN): -0.303 | interaction score (4H2585-bN): -1.01 | interaction score (4H319-bN): -1.38 | interaction score (4H2859-bN): -0.319 | interaction score (4H570-bN): -0.424 | interaction score (4H3381-bN): -0.161 | interaction score (4H492-bN): -0.438

B2: O12-bA (peptide)
chain: DEIAQLEQKIAELKQKNAELKWKNAQLKQ
interaction score (O14-bA): -0.435 | interaction score (O5-bA): -0.511 | interaction score (O15-bA): -0.225 | interaction score (O8-bA): 0.0711 | interaction score (O7-bA): -0.372 | interaction score (O9-bA): 1.04 | interaction score (O16-bA): -0.73 | interaction score (O12-bA): -1.51 | interaction score (O2-bA): -0.795 | interaction score (O3-bA): 1.31 | interaction score (O13-bA): -0.478 | interaction score (O4-bA): 1.27 | interaction score (O6-bA): 0.643

B3: 4H2233-bN (peptide)
chain: DKIQQLEQENQELEQKNQELKWEIQELEQ
interaction score (4H349-bN): -0.452 | interaction score (4H2518-bN): 1.97 | interaction score (4H3364-bN): -0.324 | interaction score (4H2253-bN): -0.322 | interaction score (4H2233-bN): -1.12 | interaction score (4H949-bN): -1.36 | interaction score (4H932-bN): -1.19 | interaction score (4H730-bN): -0.539 | interaction score (4H3297-bN): -1.34 | interaction score (4H264-bN): -0.163 | interaction score (4H2760-bN): -0.863 | interaction score (4H796-bN): -0.624 | interaction score (4H2931-bN): -0.485 | interaction score (4H2444-bN): -0.713 | interaction score (4H56-bN): -0.577 | interaction score (4H3041-bN): -1.98 | interaction score (4H235-bN): -0.762 | interaction score (4H2585-bN): -2.3 | interaction score (4H2859-bN): -0.431 | interaction score (4H3381-bN): -0.889

B4: 4H2162-bN (peptide)
chain: DKIQQLEQEIQELKQKNQELEWEIQELKQ
interaction score (4H349-bN): 0.391 | interaction score (4H2518-bN): 0.614 | interaction score (4H3364-bN): -0.416 | interaction score (4H2253-bN): -0.654 | interaction score (4H2444-bA): -0.359 | interaction score (4H2233-bN): -0.887 | interaction score (4H949-bN): -1.05 | interaction score (4H932-bN): -0.305 | interaction score (4H730-bN): -0.649 | interaction score (4H3297-bN): -0.173 | interaction score (4H264-bN): -0.799 | interaction score (4H2760-bN): -0.495 | interaction score (4H2162-bN): 1.61 | interaction score (4H796-bN): -0.418 | interaction score (4H2931-bN): -1.12 | interaction score (4H2444-bN): -1.27 | interaction score (4H56-bN): -0.33 | interaction score (4H3041-bN): 1.18 | interaction score (4H235-bN): -0.0614 | interaction score (4H2585-bN): 0.615 | interaction score (4H2859-bN): 0.571 | interaction score (4H3381-bN): -0.622
